US20180320179A1, “LANOSTEROL 14-ALPHA DEMETHYLASE (CYP51) NUCLEIC ACID MOLECULES THAT CONTROL PATHOGENS” (Dow AgroSciences LLC, priority 2017, published 2018)

Experiments:
[1] = test system: Zymoseptoria tritici (SEPTTR US-184); test: Cyp51 dsRNA foliar application bioassay on wheat seedlings, isolate US-184 (Example 5); assay type: in vivo; conditions: compared to the non-treated control; isolate not given
Description: RNAi (dsRNA) fungicidal solutions were prepared in TE buffer (pH 8.0), which were then mixed with 9 volumes of phosphate buffer (pH 7.5) containing an adjuvant. The fungicidal solutions were applied to wheat seedlings using an automated booth sprayer to run-off. All sprayed plants were allowed to air dry prior to further handling.
The following served as controls: adjuvant in phosphate buffer control, disease pressure control (untreated), and clean plant control (negative control).
(§1) These plants were inoculated with an aqueous spore suspension of Zymoseptoria tritici either prior to or after fungicidal treatments. After inoculation the plants were kept in 100% relative humidity to allow spores to germinate and infect the leaves. The plants were then transferred to a greenhouse set at 20° C. until disease developed.

[2] = test system: Zymoseptoria tritici (SEPTTR-184); test: Cyp51 dsRNA tile (fragment) foliar application bioassay (Example 6); assay type: in vivo; conditions: for Disease Control (%) SEPTTR-184 1DP / Disease Control (%) SEPTTR-184 3DC: average of 2 trials
Description: The 200 ppm concentration for each treatment was prepared by adding the calculated volume of the corresponding dsRNA solution in TE buffer. […] A non-target dsRNA control (YFP), a TE/phosphate buffer control, disease pressure control, and clean plant control were included.
as §1

[3] = 1 day protectant, calculated from disease control
[4] = 3 days curative, calculated from disease control

B1: MgCyp51-T8: dsRNA tile of Zymoseptoria tritici Cyp51, 242 bp, location 1151-1392 (nucleic acid, listed as Zymoseptoria tritici)
chain: TTCTGCGCAAGGTCAAGTCTCCCATGCCCATCGAAGGTACGGCATACGTCATTCCAACCACCCACACTCTTCTGGCCGCTCCGGGCACAACGAGCCGCATGGACGAGCACTTTCCCGACTGCCTCCATTGGGAGCCGCATCGATGGGACGAGAGCCCGTCCGAGAAATACAAGCACCTGTCCCCGACGACTGCCCTAGGAAGCATCGCCGAGGAGAAAGAAGACTATGGCTACGGCCTGGTA
**Q.** For B1, which “control of Septoria leaf blotch on wheat seedlings” value [1] is on record?
**A.** The value was “control Septoria leaf blotch”.

**Q.** What about the “ED50 (ppm) SEPTTR-184 1DP” value [2, 3] of the same molecule?
**A.** The value was 5.208 ppm.

**Q.** And the “ED80 (ppm) SEPTTR-184 1DP” value [2, 3]?
**A.** Its value is over 200 ppm.

**Q.** What about the “Disease Control (%) SEPTTR-184 1DP” value ([2]; 1 day protectant, rate 3.125 ppm) of the same molecule?
**A.** Its value is 46%.

**Q.** And the “Disease Control (%) SEPTTR-184 1DP” value ([2]; 1 day protectant, rate 12.5 ppm)?
**A.** Its value is 64%.

**Q.** What about the “Disease Control (%) SEPTTR-184 1DP” value ([2]; 1 day protectant, rate 50 ppm) of the same molecule?
**A.** Its value is 65%.

**Q.** What about the “Disease Control (%) SEPTTR-184 1DP” value ([2]; 1 day protectant, rate 200 ppm) of the same molecule?
**A.** Its value is 74%.

**Q.** And the “ED50 (ppm) SEPTTR-184 3DC” value [2, 4]?
**A.** Its value is under 3.125 ppm.

**Q.** What about the “ED80 (ppm) SEPTTR-184 3DC” value [2, 4] of the same molecule?
**A.** Its value is over 200 ppm.

**Q.** And the “Disease Control (%) SEPTTR-184 3DC” value ([2]; 3 days curative, rate 3.125 ppm)?
**A.** The value was 61%.

**Q.** And the “Disease Control (%) SEPTTR-184 3DC” value ([2]; 3 days curative, rate 12.5 ppm)?
**A.** Its value is 68%.

**Q.** What about the “Disease Control (%) SEPTTR-184 3DC” value ([2]; 3 days curative, rate 50 ppm) of the same molecule?
**A.** Its value is 73%.

**Q.** And the “Disease Control (%) SEPTTR-184 3DC” value ([2]; 3 days curative, rate 200 ppm)?
**A.** Its value is 73%.
